T1: CLDN6 (Claudin-6) peptide on HLA-A*02:01 (human)
T1 peptide: ALFGLLVYL

T2: CLDN6 (Claudin-6) peptide on HLA-A*02:01 (human)
T2 peptide: QILGVVLTL

B1: TCRCD8-mC16#12 (TCR, V domains shown)
Valpha: GEQVEQRPPHLSVREGDSAVITCTYTDPNSYYFFWYKQEPGASLQLLMKVFSSTEINEGQGFTVLLNKKDKRLSLNLTAAHPGDSAAYFCAVESSSFSKLVFGQGTSLSVVP
Vbeta: NSKVIQTPRYLVKGQGQKAKMRCIPEKGHPVVFWYQQNKNNEFKFLINFQNQEVLQQIDMTEKRFSAECPSNSPCSLEIQSSEAGDSALYLCASSLTGGAQDTQYFGPGTRLLVL
B2: TCRCD8-mC16#7 (TCR, V domains shown)
Valpha: GDSVTQTEGQVALSEEDFLTIHCNYSASGYPALFWYVQYPGEGPQFLFRASRDKEKGSSRGFEATYDKGTTSFHLRKASVQESDSAVYYCALGNNYAQGLTFGLGTRVSVFP
Vbeta: EAAVTQSPRSKVAVTGGKVTLSCHQTNNHDYMYWYRQDTGHGLRLIHYSYVADSTEKGDIPDGYKASRPSQENFSLILELASLSQTAVYFCASSTGNERLFFGHGTKLSVL
B3: TCRCD8-mC16#1 (TCR, V domains shown)
Valpha: AQSVTQPDARVTVSEGASLQLRCKYSYFGTPYLFWYVQYPRQGLQLLLKYYPGDPVVQGVNGFEAEFSKSNSSFHLRKASVHWSDWAVYFCAVSMSSGTYQRFGTGTKLQVVP
Vbeta: DMKVTQMPRYLIKRMGENVLLECGQDMSHETMYWYRQDPGLGLQLIYISYDVDSNSEGDIPKGYRVSRKKREHFSLILDSAKTNQTSVYFCASSSQNQDTQYFGPGTRLLVL
B4: TCRCD8-mC16#8 (TCR, V domains shown)
Valpha: AQKVTQTQTSISVVEKTTVTMDCVYETRDSSYFLFWYKQTASGEIVFLIRQDSYKKENATVGHYSLNFQKPKSSIGLIITATQIEDSAVYFCAMREAANSGTYQRFGTGTKLQVVP
Vbeta: DPKIIQKPKYLVAVTGSEKILICEQYLGHNAMYWYRQSAKKPLEFMFSYSYQKLMDNQTASSRFQPQSSKKNHLDLQITALKPDDSATYFCASSQQNSGNTLYFGEGSRLIVV
B5: TCRCD8-mC16#18 (TCR, V domains shown)
Valpha: GDSVTQTEGPVTVSESESLIINCTYSATSIAYPNLFWYVRYPGEGLQLLLKVITAGQKGSSRGFEATYNKETTSFHLQKASVQESDSAVYYCALGETGSFNKLTFGAGTRLAVCP
Vbeta: NSKVIQTPRYLVKGQGQKAKMRCIPEKGHPVVFWYQQNKNNEFKFLINFQNQEVLQQIDMTEKRFSAECPSNSPCSLEIQSSEAGDSALYLCASSLGIYEQYFGPGTRLTVL
B6: TCRCD8-mC16#14 (TCR, V domains shown)
Valpha: GDQVEQSPSALSLHEGTGSALRCNFTTTMRAVQWFRKNSRGSLINLFYLASGTKENGRLKSAFDSKERYSTLHIRDAQLEDSGTYFCAAEGGGNYKPTFGKGTSLVVHP
Vbeta: AQTIHQWPVAEIKAVGSPLSLGCTIKGKSSPNLYWYWQATGGTLQQLFYSITVGQVESVVQLNLSASRPKDDQFILSTEKLLLSHSGFYLCAWSPPINTEVFFGKGTRLTVV
B7: TCRCD8-mC16#2 (TCR, V domains shown)
Valpha: GDSVTQTEGQVTVSESKSLIINCTYSATSIGYPNLFWYVRYPGEGLQLLLKVITAGQKGSSRGFEATYNKEATSFHLQKASVQESDSAVYYCALNNQGKLIFGQGTKLSIKP
Vbeta: EAAVTQSPRNKVAVTGGKVTLSCNQTNNHNNMYWYRQDTGHGLRLIHYSYGAGSTEKGDIPDGYKASRPSQENFSLILELATPSQTSVYFCASGGDSQNTLYFGAGTRLSVL

Tests used:
[1] = molecular target: T1, CLDN6 (Claudin-6) peptide on HLA-A*02:01; assay: killing
[2] = molecular target: T2, CLDN6 (Claudin-6) peptide on HLA-A*02:01; assay: cytokine release

Binder	binding result [1]	binding result [2]
B1	recognises	
B2		recognises
B3	recognises	
B4	recognises	
B5	recognises	
B6	recognises	
B7	recognises	
